Assay results: patent US20240067706A1 (CENTER FOR EXCELLENCE IN MOLECULAR CELL SCIENCE CHINESE …, published 2024)

Key:
[1] = target: T1, SARS-CoV S protein expressed on the cell surface (SARS-CoV, UniProt P59594 14-1255); assay: flow cytometry on CHO cells transfected with S protein
T1 construct: whole, on cells

[2] = target: T2, SARS-CoV-2 S1 protein (SARS-CoV-2, UniProt P0DTC2 16-685); assay: ELISA, coated protein
T2 construct: domain: S1

B1: fully human monoclonal antibody 76E1 (antibody, V domains shown)
VH: EVQLVESGGGVVQPGGSLRLSCEASGFSFKDYGMHWIRQTPGKGLEWISRISGDTRGTSYVDSVKGRFIVSRDNSRNSLFLQMNSLRSEDTALYYCAALVIVAAGDDFDLWGQGTVVTVSS
VL: QSALTQPLSVSGSPGQSVTISCTGSSSDIGSYNFVSWYRQYPGKAPKVMIYEVNKRPSGVPVRFSGSKSGNTASLTVSGLQHEDEADYYCCSYGGRNNLIFGGGTKLTVL
notes: also called 76E1 antibody
binding result [1]: binds
binding result [2]: no binding (tested: 10 µg/ml initial test concentration)
